Molecular target: mouse fibrinogen (mouse) (UniProt E9PV24)

thrombin (enzyme)
time required for thrombin to clot mouse plasma (control): 15 s

recombinant mMCP-7-FLAG (EK-activated mature mouse mast cell protease 7 with C-terminal FLAG peptide) (enzyme)
fibrinogenolysis assay: time required for thrombin to clot mouse plasma: > 40 s

From patent US5968782
